# Assay results as given in the RNAGym collection of RNA variant scans (doi:10.7554/elife.80360).
# B1: CPEB3 Ribozyme (parent)
# chain: GGGGGCCACAGCAGAAGCGUUCACGUCGCGGCCCCUGUCAGAUUCUGGUGAAUCUGCGAAUUCUGCUGU
# Variants of: B1
# Test: self-cleavage, relative activity (ratio to wild type); higher = more cleavage; co-transcriptional
row,Variant,self-cleavage
1,GGGGGCCAUAGCAGAAGCGUUCACGUCGCGGCCCCUGUCAGAUUCUGGUGAAUCUGCGGAUUCUGCUGU [C9U A59G],0.986
2,GGGGGCCAUAGCAGAAGCGUUCACGUCGCGGCCCCUGUCAGAUUCUGGUGAAUCUGUGAAUUCUGCUGU [C9U C57U],0.38
3,GGGGGCCAUAGCAGAAGCGUUCACGUCGCGGCCCCUGUCAGAUUCUGGUGAAUCUGAGAAUUCUGCUGU [C9U C57A],0.32
4,GGGGGCCAGAGCAGAAGCGUUCACGUCGCGGCCCCUGUCAGAUUCUGGUGAAUCGGCGAAUUCUGCUGU [C9G U55G],0.865
5,GGGGGCCAGAGCAGAAGCGUUCACGUCGCGGCCCCUGUCAGAUUCUGGUGAAUCCGCGAAUUCUGCUGU [C9G U55C],0.877
6,GGGGGCCAGAGCAGAAGCGUUCACGUCGCGGCCCCUGUCAGAUUCUGGUGAAUCUGCGAAUUCUGCGGU [C9G U67G],1.05
7,GGGGGCCAGAGCAGAAGCGUUCACGUCGCGGCCCCUGUCAGAUUCUGGUGAAUCUGCGAAUUCUGCCGU [C9G U67C],0.976
8,GGGGGCCAUAGCAGAAGCGUUCACGUCGCGGCCCCUGUCGGAUUCUGGUGAAUCUGCGAAUUCUGCUGU [C9U A40G],1.03
9,GGGGGCCAUAGCAGAAGCGUUCACGUCGCGGCCCCUGUCUGAUUCUGGUGAAUCUGCGAAUUCUGCUGU [C9U A40U],0.915
10,GGGGGCCAUAGCAGACGCGUUCACGUCGCGGCCCCUGUCAGAUUCUGGUGAAUCUGCGAAUUCUGCUGU [C9U A16C],0.531
11,GGGGGCCAUAGCAGAAGCGUUCACGUCGCGGCCCCUGUCAGAUUAUGGUGAAUCUGCGAAUUCUGCUGU [C9U C45A],1.01
12,GGGGGCCAUAGCAGAAGCGUUCACGUCGCGGCCCCUGUCAGAUUUUGGUGAAUCUGCGAAUUCUGCUGU [C9U C45U],1.01
13,GGGGGCCAUAGCAGAAGCGUUCACGUCGCGGCCCCUGUCAGAUUCUGGUGAAUGUGCGAAUUCUGCUGU [C9U C54G],0.994
14,GGGGGCCAUAGCAGAAGCGUUCACGUCGCGGCCCCUGUCAGAUUCUGGUGAAUAUGCGAAUUCUGCUGU [C9U C54A],0.978
15,GGGGGCCAUAGCAGAAGCGUUCACGUCGCGGCCCCUGUCAGAUUCUGGUGAAUCUGCGAGUUCUGCUGU [C9U A60G],0.983
16,GGGGGCCAUAGCAGAAGCGUUCACGUCGCGGCCCCUGUCAGAUUCUGGUGAAUCUGCGACUUCUGCUGU [C9U A60C],0.303
17,GGGGGCCAUAGCAGAAGCGUUCACGUCGCGGGCCCUGUCAGAUUCUGGUGAAUCUGCGAAUUCUGCUGU [C9U C32G],0.838
18,GGGGGCCAUAGCAGAAGCGUUCACGUCGCGGACCCUGUCAGAUUCUGGUGAAUCUGCGAAUUCUGCUGU [C9U C32A],1.02
19,GGGGGCCAGAGCAGAAGCGUUCACGUCGCGGCCCCUGUCAGAUUCUGGUGAAUCUGCGAACUCUGCUGU [C9G U61C],0.83
20,GGGGGCCAGAGCAGAAGCGUUCACGUCGCGGCCCCUGUCAGAUUCUGGUGAAUCUGCGAAAUCUGCUGU [C9G U61A],1.01
21,GGGGGCCAUAGCAGAAGCGUUCACGUCGCGGCCCCUGUCAGCUUCUGGUGAAUCUGCGAAUUCUGCUGU [C9U A42C],1.03
22,GGGGGCCAUAGCAGAAGCGUUCACGUCGCGGCCCCUGUCAGUUUCUGGUGAAUCUGCGAAUUCUGCUGU [C9U A42U],0.997
23,GGGGGCCAUAGCAGAAGCGUUCACGUCGCGGCCCCUGUCAGGUUCUGGUGAAUCUGCGAAUUCUGCUGU [C9U A42G],0.96
24,GGGGGCCAGAGCAGAAGCGUUCACGUCGCGGCCCCUGUCAGAUUCUGGUGAAUCUGCGAAUUCAGCUGU [C9G U64A],0.884
25,GGGGGCCAGAGCAGAAGCGUUCACGUCGCGGCCCCUGUCAGAUUCUGGUGAAUCUGCGAAUUCCGCUGU [C9G U64C],0.864
26,GGGGGCCAUAGCAGAAGCGUUCACGUCGCGGCCCCUGUCAGAUUCUGGUGAAUCUGCGAAUUAUGCUGU [C9U C63A],0.968

row,Variant,self-cleavage
1,GGGGGCCAUAGCAGAAGCGUUCACGUCGCGGCCCCUGUCAGAUUCUGGUGAAUCUGCGAAUUGUGCUGU [C9U C63G],0.88
2,GGGGGCCAUAGCAGAAGCGUUCACGUCGCGGCCCCUGUCAGAUUCUGGUGAAUCUGCGAAUUUUGCUGU [C9U C63U],0.982
3,GGGGGCCAUAGCAGAAGCGUUCACGUCGCGGCCACUGUCAGAUUCUGGUGAAUCUGCGAAUUCUGCUGU [C9U C34A],1.01
4,GGGGGCCAUAGCAGAAGCGUUCACGUCGCGGCCGCUGUCAGAUUCUGGUGAAUCUGCGAAUUCUGCUGU [C9U C34G],1.01
5,GGGGGCCAUAGCAGAAGCGUUCACGUCGCGGCCCCUGUGAGAUUCUGGUGAAUCUGCGAAUUCUGCUGU [C9U C39G],0.962
6,GGGGGCCAUAGCAGAAGCGUUCACGUCGCGGCCCCUGUAAGAUUCUGGUGAAUCUGCGAAUUCUGCUGU [C9U C39A],0.912
7,GGGGGCCAGAGCAGAAGCGUUCACGUCGCGGCCCCUGUCAGAGUCUGGUGAAUCUGCGAAUUCUGCUGU [C9G U43G],0.955
8,GGGGGCCAGAGCAGAAGCGUUCACGUCGCGGCCCCUGUCAGAAUCUGGUGAAUCUGCGAAUUCUGCUGU [C9G U43A],1.02
9,GGGGGCCAGAGCAGAAGCGUUCACGUCGCGGCCCCUGUCAGACUCUGGUGAAUCUGCGAAUUCUGCUGU [C9G U43C],0.996
10,GGGGGCCAUAGCAGAAGCGUUCACGUUGCGGCCCCUGUCAGAUUCUGGUGAAUCUGCGAAUUCUGCUGU [C9U C27U],0.788
11,GGGGGCCAUAGCAGAAGCGUUCACGUAGCGGCCCCUGUCAGAUUCUGGUGAAUCUGCGAAUUCUGCUGU [C9U C27A],0.891
12,GGGGGCCAUGGCAGAAGCGUUCACGUCGCGGCCCCUGUCAGAUUCUGGUGAAUCUGCGAAUUCUGCUGU [C9U A10G],1.04
13,GGGGGCCAUUGCAGAAGCGUUCACGUCGCGGCCCCUGUCAGAUUCUGGUGAAUCUGCGAAUUCUGCUGU [C9U A10U],0.987
14,GGGGGCCAUCGCAGAAGCGUUCACGUCGCGGCCCCUGUCAGAUUCUGGUGAAUCUGCGAAUUCUGCUGU [C9U A10C],1.06
15,GGGGGCCAUAGCAGAAGCGUUCUCGUCGCGGCCCCUGUCAGAUUCUGGUGAAUCUGCGAAUUCUGCUGU [C9U A23U],1.01
16,GGGGGCCAUAGCAGAAGCGUUCGCGUCGCGGCCCCUGUCAGAUUCUGGUGAAUCUGCGAAUUCUGCUGU [C9U A23G],1.01
17,GGGGGCCAUAGCAGAAGCGUUCCCGUCGCGGCCCCUGUCAGAUUCUGGUGAAUCUGCGAAUUCUGCUGU [C9U A23C],0.982
18,GGGGGCCAUAGCAGAAGCGUUUACGUCGCGGCCCCUGUCAGAUUCUGGUGAAUCUGCGAAUUCUGCUGU [C9U C22U],0.403
19,GGGGGCCAGAGCAGAAGCGUUCACGUCGCGGCCCCUGGCAGAUUCUGGUGAAUCUGCGAAUUCUGCUGU [C9G U38G],0.343
20,GGGGGCCAGAGCAGAAGCGUUCACGUCGCGGCCCCUGACAGAUUCUGGUGAAUCUGCGAAUUCUGCUGU [C9G U38A],0.988
21,GGGGGCCAGAGCAGAAGCGUUCACGUCGCGGCCCCUGUCAGAUUCUGGUGAAUCUGCGAAUGCUGCUGU [C9G U62G],0.849
22,GGGGGCCAGAGCAGAAGCGUUCACGUCGCGGCCCCUGUCAGAUUCUGGUGAAUCUGCGAAUCCUGCUGU [C9G U62C],0.96
23,GGGGGCCAGAGCAGAAGCGUUCACGUCGCGGCCCCUGUCAGAUUCUGGUGAAUCUGCGAAUACUGCUGU [C9G U62A],0.977
24,GGGGGCCAUAGCCGAAGCGUUCACGUCGCGGCCCCUGUCAGAUUCUGGUGAAUCUGCGAAUUCUGCUGU [C9U A13C],0.925
25,GGGGGCCAUAGCUGAAGCGUUCACGUCGCGGCCCCUGUCAGAUUCUGGUGAAUCUGCGAAUUCUGCUGU [C9U A13U],0.966
26,GGGGGCCAUAGCAGCAGCGUUCACGUCGCGGCCCCUGUCAGAUUCUGGUGAAUCUGCGAAUUCUGCUGU [C9U A15C],0.989

row,Variant,self-cleavage
1,GGGGGCCAUAGCAGAAGCGUUCACGUCGCGGCUCCUGUCAGAUUCUGGUGAAUCUGCGAAUUCUGCUGU [C9U C33U],0.996
2,GGGGGCCAUAGCAGAAGCGUUCACGUCGCGGCACCUGUCAGAUUCUGGUGAAUCUGCGAAUUCUGCUGU [C9U C33A],0.994
3,GGGGGCCAGAGCAGAAGCGUUCACGUCGCGGCCCCUGUCAGAUUCUGGUGAAUCUGCGAAUUCUGCUGG [C9G U69G],1.05
4,GGGGGCCAGAGCAGAAGCGUUCACGUCGCGGCCCCUGUCAGAUUCUGGUGAAUCUGCGAAUUCUGCUGA [C9G U69A],1.04
5,GGGGGCCAGAGCAGAAGCGUUCACGUCGCGGCCCCUGUCAGAUACUGGUGAAUCUGCGAAUUCUGCUGU [C9G U44A],0.956
6,GGGGGCCAGAGCAGAAGCGUUCACGUCGCGGCCCCUGUCAGAUCCUGGUGAAUCUGCGAAUUCUGCUGU [C9G U44C],0.954
7,GGGGGCCAUAGCAGAAGCGUUCACGUCGCGGCCCCUGUCAGAUUCUGGUGAUUCUGCGAAUUCUGCUGU [C9U A52U],0.996
8,GGGGGCCAUAGCAGAAGCGUUCACGUCGCGGCCCCUGUCAGAUUCUGGUGACUCUGCGAAUUCUGCUGU [C9U A52C],1.01
9,GGGGGCCAGAGCAGAAGCGUUCACGUCGCGGCCCCGGUCAGAUUCUGGUGAAUCUGCGAAUUCUGCUGU [C9G U36G],0.245
10,GGGGGCCAUAGCAGAAGCGUUCACGUCGCGGCCCCUGUCAGAUUCUGGUGCAUCUGCGAAUUCUGCUGU [C9U A51C],1.03
11,GGGGGCCAUAGCAGAAGCGUUCACGUCGCGGCCCCUGUCAGAUUCUGGUGGAUCUGCGAAUUCUGCUGU [C9U A51G],1.02
12,GGGGGCCAUAGCAGAAGGGUUCACGUCGCGGCCCCUGUCAGAUUCUGGUGAAUCUGCGAAUUCUGCUGU [C9U C18G],0.283
13,GGGGGCCAUAGCAGAAGAGUUCACGUCGCGGCCCCUGUCAGAUUCUGGUGAAUCUGCGAAUUCUGCUGU [C9U C18A],0.355
14,GGGGGCCAUAGCAGAAGUGUUCACGUCGCGGCCCCUGUCAGAUUCUGGUGAAUCUGCGAAUUCUGCUGU [C9U C18U],0.927
15,GGGGGCCAUAGCAGAAGCGUUCACGUCGGGGCCCCUGUCAGAUUCUGGUGAAUCUGCGAAUUCUGCUGU [C9U C29G],0.923
16,GGGGGCCAUAGCAGAAGCGUUCACGUCGAGGCCCCUGUCAGAUUCUGGUGAAUCUGCGAAUUCUGCUGU [C9U C29A],0.922
17,GGGGGCCAUAGCAGAAGCGUUCACGUCGCGGCCCCUGUCAGAUUCUGGUGAAUCUGCGAAUUCUGAUGU [C9U C66A],0.968
18,GGGGGCCAUAGCAGAAGCGUUCACGUCGCGGCCCUUGUCAGAUUCUGGUGAAUCUGCGAAUUCUGCUGU [C9U C35U],0.982
19,GGGGGCCAUAGCAGAAGCGUUCACGUCGCGGCCCGUGUCAGAUUCUGGUGAAUCUGCGAAUUCUGCUGU [C9U C35G],0.76
20,GGGGGCCAUAGCAGAAGCGUUCACGUCGCGGCCCAUGUCAGAUUCUGGUGAAUCUGCGAAUUCUGCUGU [C9U C35A],0.342
21,GGGGGCCAUAGCAGAAGCGUUCAAGUCGCGGCCCCUGUCAGAUUCUGGUGAAUCUGCGAAUUCUGCUGU [C9U C24A],0.827
22,GGGGGCCAUAGCAGAAGCGUUCAGGUCGCGGCCCCUGUCAGAUUCUGGUGAAUCUGCGAAUUCUGCUGU [C9U C24G],0.535
23,GGGGGCCAUAGCAGAAGCGUUCAUGUCGCGGCCCCUGUCAGAUUCUGGUGAAUCUGCGAAUUCUGCUGU [C9U C24U],0.888
24,GGGGGCCAGAGCAGAAGCGUUCACGUCGCGGCCCCUGUCAGAUUCUGGUGAACCUGCGAAUUCUGCUGU [C9G U53C],0.956
25,GGGGGCCAGAGCAGAAGCGUUCACGUCGCGGCCCCUGUCAGAUUCUGGUGAAGCUGCGAAUUCUGCUGU [C9G U53G],0.961
26,GGGGGCCAGAGCAGAAGCGUUCACGUCGCGGCCCCUGUCAGAUUCAGGUGAAUCUGCGAAUUCUGCUGU [C9G U46A],1.03
